Target: biotinylated VP1 pentamer of BKV genotype I (BK virus genotype I) (UniProt P03088)
Test: BLI, biotinylated VP1 pentamer on streptavidin sensor, mAb 0 to 40 nM

MTX005 from Memo Therapeutics AG (referred as 319C07 in WO2021/250097) (antibody)
Kd: 17.9 nM
